From patent publication US20250188033A1, “INHIBITOR OF REPLICATION PROTEIN A1 OF TRYPANOSOMA BRUCEI AND METHOD OF USE THEREOF” (Research Foundation of the City University of New York, published 2025) come the findings set out here.

Data set [1] has as its target T1, TbRPA complex (RPA1/RPA2/RPA3) (Trypanosoma brucei, UniProt Q384B5;Q57ZN9;Q38DK0 Q384B5:1-463,Q57ZN9:1-255,Q38DK0:1-127).
T1 sequence 1: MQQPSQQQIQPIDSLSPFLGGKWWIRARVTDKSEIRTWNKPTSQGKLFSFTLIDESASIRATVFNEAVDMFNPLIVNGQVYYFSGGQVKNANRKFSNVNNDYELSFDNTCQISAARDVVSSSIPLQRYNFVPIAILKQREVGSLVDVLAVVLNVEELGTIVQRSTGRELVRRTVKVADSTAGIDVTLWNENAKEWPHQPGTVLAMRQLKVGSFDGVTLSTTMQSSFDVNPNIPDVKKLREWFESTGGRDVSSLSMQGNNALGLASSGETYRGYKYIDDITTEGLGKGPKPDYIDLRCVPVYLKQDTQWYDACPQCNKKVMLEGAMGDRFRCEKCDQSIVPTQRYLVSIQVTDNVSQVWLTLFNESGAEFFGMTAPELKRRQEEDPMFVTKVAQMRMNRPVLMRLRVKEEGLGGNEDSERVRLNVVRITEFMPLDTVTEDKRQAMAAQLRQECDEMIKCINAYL
T1 sequence 2: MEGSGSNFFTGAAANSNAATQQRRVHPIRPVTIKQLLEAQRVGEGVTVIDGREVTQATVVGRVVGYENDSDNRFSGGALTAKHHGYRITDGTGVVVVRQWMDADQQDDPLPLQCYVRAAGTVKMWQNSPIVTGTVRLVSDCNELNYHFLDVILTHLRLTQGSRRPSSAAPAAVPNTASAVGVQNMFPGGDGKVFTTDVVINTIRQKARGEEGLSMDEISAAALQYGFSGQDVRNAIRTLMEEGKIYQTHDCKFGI
T1 sequence 3: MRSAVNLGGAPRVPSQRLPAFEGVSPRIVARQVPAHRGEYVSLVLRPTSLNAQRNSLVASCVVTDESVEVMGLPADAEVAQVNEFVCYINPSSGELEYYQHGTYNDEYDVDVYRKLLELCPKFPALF
Put plainly: MST; 10 mM MgCl2, 10 mM NaCl, Tris pH 7.5, 22 C; JC-229 inhibits binding, IC50 24.5 nM. The note with it: tags: 6xHis-thrombin site on RPA1 (pSR8), E. coli; one complex per dT32 stated; label: 5' Cy5. As to the method:
FIG. 5C are graphs showing recombinant TbRPA complex was 2-fold serially diluted from 400 nM concentration and these were incubated with 10 nM 5′Cy5-dT₃₂. Binding was analyzed by MST (left). Serial dilutions of JC-229 were pre-incubated with 25 nM TbRPA complex and then with 10 nM 5′Cy5-dT₃₂. Inhibition of binding was analyzed by MST (right).
(§1) MST experiments were performed on Monolith NT.115 instrument with red filter (Nanotemper Technologies) in MST binding buffer (20 mM Tris, pH 7.5, 10 mM NaCl, 10 mM MgCl₂, 2 mM DTT, 10% glycerol and 0.1 mg/ml BSA) using premium-coated capillaries (Nanotemper Technologies). MST experiments were performed with 40% LED power and 40% MST power at 22° C.
(§2) ssDNA-binding assay: The 5′Cy5 labeled-oligo dT32 was purchased from IDT. Increasing concentrations of purified protein (from 0.06 nM to 2,000 nM for DBD-AB proteins; from 0.02 nM to 800 nM for RPA complexes) were incubated with equal volume (10 μl) of 5′Cy5-labeld oligo dT₃₂ (10 nM final concentration) in MST binding buffer for 15 min at room temperature. Samples were then loaded into MST capillaries.

The target of data set [2] is T2, TcRPA1 DBD-AB (Trypanosoma cruzi, UniProt Q4DXC9 Q4DXC9:1-256).
T2 sequence: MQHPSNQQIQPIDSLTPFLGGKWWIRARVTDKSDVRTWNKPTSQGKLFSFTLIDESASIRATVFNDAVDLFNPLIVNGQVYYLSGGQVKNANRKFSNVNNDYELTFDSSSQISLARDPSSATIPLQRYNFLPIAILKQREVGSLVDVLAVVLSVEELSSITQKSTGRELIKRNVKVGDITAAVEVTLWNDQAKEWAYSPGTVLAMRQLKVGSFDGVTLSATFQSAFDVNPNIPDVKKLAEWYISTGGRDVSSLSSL
Put plainly: MST; p171-172 quotes 12.6 nM for the same WT protein; 10 mM MgCl2, 22 C; not inhibited by JC-229. The note with it: tags: N-terminal 6xHis, pET28a (pSR13), E. coli; label: 5' Cy5. The protocol: as §1, §2

For data set [3], the target named is TbRPA1 DBD-AB F64A (Trypanosoma brucei, UniProt Q384B5 Q384B5:1-257, F64A). Nature of the data set: MST; no ssDNA-binding activity. The settings on record: tags: 6xHis, pET28a, E. coli; label: 5' Cy5.
Data set [4] deals with TbRPA1 DBD-AB W188A (Trypanosoma brucei, UniProt Q384B5 Q384B5:1-257, W188A). Nature of the data set: MST; no ssDNA-binding activity. The note with it: tags: 6xHis, pET28a, E. coli; label: 5' Cy5.
Data set [5] addresses T3, LmexRPA1 DBD-AB (Leishmania mexicana, UniProt E9B001 E9B001:1-258).
T3 sequence: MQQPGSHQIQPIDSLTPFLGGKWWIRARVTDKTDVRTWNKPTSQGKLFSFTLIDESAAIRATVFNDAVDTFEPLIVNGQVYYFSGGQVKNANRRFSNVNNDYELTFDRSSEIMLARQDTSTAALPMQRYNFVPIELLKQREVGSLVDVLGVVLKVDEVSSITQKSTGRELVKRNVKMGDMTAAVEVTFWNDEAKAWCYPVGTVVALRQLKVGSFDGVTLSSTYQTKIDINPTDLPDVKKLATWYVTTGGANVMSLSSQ
Nature of the data set: MST; 10 mM MgCl2, 10 mM NaCl, Tris pH 7.5, 22 C; not inhibited by JC-229. The note with it: tags: N-terminal 6xHis, pET28a (pSR16), E. coli; label: 5' Cy5. The protocol:
as §1, §2

The target of data set [6] is HsRPA1 DBD-AB (Homo sapiens, UniProt P27694 P27694:181-422). Described as above. The note with it: tags: 6xHis, pET28a (pSR15), E. coli; label: 5' Cy5. As to the method:
as §1, §2

Data set [7] addresses TcRPA1 DBD-AB T105S (Trypanosoma cruzi, UniProt Q4DXC9 Q4DXC9:1-256, T105S). Nature of the data set: MST; 10 mM MgCl2, 22 C; JC-229 IC50 159x10^3 nM. The settings on record: tags: N-terminal 6xHis, pET28a, E. coli; label: 5' Cy5.

The term Kd denotes a measure of binding affinity in units of concentration. Lower therefore signals a tighter complex.

Chain of HsRPA1 DBD-AB (P27694 181-422, one chain of several): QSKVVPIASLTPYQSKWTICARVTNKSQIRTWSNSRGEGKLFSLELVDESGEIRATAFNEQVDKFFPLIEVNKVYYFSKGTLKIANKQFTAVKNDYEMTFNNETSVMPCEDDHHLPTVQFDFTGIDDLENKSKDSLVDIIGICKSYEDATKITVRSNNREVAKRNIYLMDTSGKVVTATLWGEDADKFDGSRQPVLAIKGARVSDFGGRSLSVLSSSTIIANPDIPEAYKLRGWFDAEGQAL

On to TTTTTTTTTTTTTTTTTTTTTTTTTTTTTTTT (ssDNA) [5'Cy5-dT32], for which the dissociation constant Kd in data set [1] worked out at 13.2 nM; in data set [2], 13.2 nM; in data set [5], 12.6 nM; in data set [6], 48 nM; in data set [7] it was 52.4 nM. For the same molecule, the binding result in data set [3] and in data set [4] was “no binding” in each case.
